From patent publication US20190359712A1 (Daiichi Sankyo, published 2019)
Values belong to the binder of their own block, whether it stands above or below them.

Assays:
human CD3 on human PBMC [1] = target: T1, human CD3 on human PBMC (human, UniProt P07766 23-207); assay: flow cytometry on human PBMC, Penta-His Alexa Fluor 488 detection (rMFI)
T1 construct: Native CD3 complex on T cells in PBMC; the other chains of the complex are native; also called human CD3 (PBMC)
Method: Commercially available human PBMC (Cellular Technology Ltd. (CTL)) was adjusted to an appropriate concentration with PBS containing 5% FBS. LIVE/DEAD Fixable Near-IR Dead Cell Stain Kit (Thermo Fisher Scientific Inc.) and an anti-CD19 antibody (Beckman Coulter Inc.) were added to the cells, which were then left standing at 4° C. for 30 minutes. The cells were washed twice with PBS containing 5% FBS, then adjusted to a concentration of 1×10⁶ cells/mL with PBS containing 5% FBS, added at a concentration of 100 μL/well to a 96-well U-bottomed microplate, and centrifuged to remove a supernatant. […] The cells were washed twice with PBS containing 5% FBS. Then, Penta-His Alexa Fluor 488 (Qiagen N.V.) diluted with PBS containing 5% FBS was added at a concentration of 30 μL/well, and the plate was left standing at 4° C. for 30 minutes. The cells were washed twice with PBS containing 5% FBS and then resuspended in PBS containing 5% FBS, followed by detection using a flow cytometer (FACSCanto™ II; Becton, Dickinson and Company). The data was analyzed using Flowjo (Tree Star Inc.). The mean fluorescence intensity (MFI) of Alexa Fluor 488 in a fraction free of dead cells and CD19-positive cells was calculated. The MFI value of the scFv-unsupplemented sample was subtracted from the MFI value of the scFv-supplemented sample to calculate a relative value of MFI (rMFI).

[2] = target: T2, CD3 immobilized on a sensor chip (Example 7)-1-2); assay: SPR (BIAcore T-200), CD3 immobilized, scFv injected at five concentrations; concentration giving 1/2 Rmax
T2 construct: the text says only 'CD3 immobilized on a sensor chip'; also called human CD3
Method: Five different concentrations of the scFv were injected into CD3 immobilized on a sensor chip. Rmax was estimated from the resulting response, and the antibody concentration that reached 1/2 thereof was defined as the dissociation constant of the scFv for CD3.

[3] = target: T3, cynomolgus monkey CD3 on cynomolgus monkey PBMC or T cell line HSC-F (cynomolgus monkey, UniProt Q95LI5 22-198); assay: flow cytometry on cynomolgus monkey PBMC
T3 construct: whole, on cells; Native CD3 complex on monkey T cells; also called cynomolgus monkey CD3 (PBMC); cynomolgus monkey CD3 antigen
T3 sequence (Q95LI5 22-198): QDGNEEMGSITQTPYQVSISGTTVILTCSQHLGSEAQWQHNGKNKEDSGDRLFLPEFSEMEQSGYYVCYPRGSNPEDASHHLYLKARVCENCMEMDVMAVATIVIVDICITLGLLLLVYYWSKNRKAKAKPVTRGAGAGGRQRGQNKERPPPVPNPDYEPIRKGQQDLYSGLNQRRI

[4] = target: T4, human CD3εγ single-chain antigen (human); assay: SPR (BIAcore 3000), human CD3εγ single-chain antigen immobilized, bispecific as analyte; KD from the amount bound at each concentration
T4 construct: also called scCD3εγ; His-scCD3 antigen
T4 chain: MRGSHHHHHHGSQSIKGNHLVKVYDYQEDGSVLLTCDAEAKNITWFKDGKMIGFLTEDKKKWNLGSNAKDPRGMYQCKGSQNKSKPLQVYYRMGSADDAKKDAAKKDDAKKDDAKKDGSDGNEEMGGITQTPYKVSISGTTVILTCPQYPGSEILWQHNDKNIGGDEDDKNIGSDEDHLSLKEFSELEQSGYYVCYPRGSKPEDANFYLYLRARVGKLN
Method: The bispecific molecule was assayed for its binding to the CD3εγ antigen using BIAcore 3000 (GE Healthcare Bio-Sciences Corp.) by a method which involves immobilizing the antigen and assaying the antibody as an analyte. […] Approximately 100 RU of the antigen was covalently bound to a sensor chip CM5 (GE Healthcare Bio-Sciences Corp.) by the amine coupling method. Immobilization treatment was performed without the addition of an antigenic protein as a reference cell. […] The bispecific molecule was prepared at a 2-fold dilution ratio from 1 μM (highest concentration) to 4 nM or at a 2-fold dilution ration from 200 nM to 1 nM. Each concentration of the bispecific molecule was added to the antigen-immobilized chip at a flow rate of […] for 25 minutes, and the amount of the bispecific molecule bound thereto was monitored. A 10 mM glycine-hydrochloric acid solution (pH 1.5) was added as a regenerating solution for 30 seconds. The data was analyzed using analytical software (BIAevaluation software, version 4.1.1) to calculate a dissociation constant KD from the amount of the bispecific molecule bound at each concentration.

[5] = target: T5, human TROP2 on FaDu and HPAF-II cells (human, UniProt P09758 27-323); assay: flow cytometry on HPAF-II cells, Penta-His Alexa Fluor 488 detection, rMFI
T5 construct: whole, on cells
T5 sequence (looked up): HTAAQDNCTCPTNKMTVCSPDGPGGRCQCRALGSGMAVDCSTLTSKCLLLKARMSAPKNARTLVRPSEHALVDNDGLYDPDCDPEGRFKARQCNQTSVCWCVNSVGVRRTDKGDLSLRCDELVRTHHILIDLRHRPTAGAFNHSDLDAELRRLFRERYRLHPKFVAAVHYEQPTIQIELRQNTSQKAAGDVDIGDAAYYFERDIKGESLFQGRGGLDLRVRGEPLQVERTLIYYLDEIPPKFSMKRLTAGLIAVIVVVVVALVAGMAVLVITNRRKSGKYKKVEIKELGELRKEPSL

[6] = target: T6, recombinant human TROP-2/human IgG Fc fused form (R&D Systems, Inc.) (human, UniProt P09758 27-274, limits assumed); assay: SPR (BIAcore 3000), TROP-2/Fc captured on anti-human IgG(Fc), bispecific as analyte, 1:1 binding model
T6 construct: Bought reagent; also called TROP-2/Fc; not shown: human IgG Fc
T6 sequence (looked up): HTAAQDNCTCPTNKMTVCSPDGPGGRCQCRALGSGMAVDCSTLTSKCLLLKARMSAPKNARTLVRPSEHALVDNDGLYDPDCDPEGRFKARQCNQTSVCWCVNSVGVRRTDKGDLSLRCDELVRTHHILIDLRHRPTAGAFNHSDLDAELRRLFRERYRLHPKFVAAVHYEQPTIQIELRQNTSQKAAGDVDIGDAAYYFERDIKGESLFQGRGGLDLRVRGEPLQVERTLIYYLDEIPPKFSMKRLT
Method: The bispecific molecule was assayed for its binding to TROP2 using BIAcore 3000 (GE Healthcare Bio-Sciences Corp.) by the capture method, which involves capturing the antigen by an anti-human IgG antibody and assaying the bispecific molecule as an analyte. The antigen used was recombinant human TROP-2/human IgG Fc fused form (R&D Systems, Inc.). Approximately 2000 RU of the anti-human IgG(Fc) antibody (Human Antibody Capture Kit, GE Healthcare Bio-Sciences Corp.) was covalently bound to a sensor chip CM5 (GE Healthcare Bio-Sciences Corp.) by the amine coupling method. Similarly, this antibody was immobilized onto a reference cell. The running buffer used was HBS-P (10 mM HEPES (pH 7.4), 0.15 M NaCl, and 0.005% Surfactant P20). The bispecific molecule was prepared at a 2-fold dilution ratio from 200 nM to 1 nM. A 1 μg/ml solution of the antigen was added onto the anti-human IgG(Fc) antibody-immobilized chip for approximately […]. Then, each concentration of the bispecific molecule was added at a flow rate of 30 μl/min for 300 seconds. Subsequently, the dissociation phase was monitored for 600 seconds. A 3 M magnesium chloride solution was added as a regenerating solution for 30 seconds. The data was analyzed using the 1:1 binding model of analytical software (BIAevaluation software, version 4.1.1) to calculate an association rate constant (ka), a dissociation rate constant (kd), and a dissociation constant (KD; KD=kd/ka).

[7] = target: T3, cynomolgus monkey CD3 on cynomolgus …; assay: flow cytometry on cynomolgus monkey PBMC, Penta-His Alexa Fluor 488 detection, rMFI
human CD3 on human PBMC [8] = target: T1, human CD3 on human PBMC; assay: flow cytometry on human PBMC (dead cells and CD19-positive cells excluded), Penta-His Alexa Fluor 488 detection, rMFI
[9] = target: T7, human CD3εδ expressed on transfected Lenti-X293T cells (human, UniProt P07766 23-207; P04234 22-171); assay: flow cytometry, hybridoma supernatant on hCD3ε/hCD3δ-transfected Lenti-X293T cells
T7 construct: Cells co-transfected with hCD3ε-pcDNA3.1 and hCD3δ-pcDNA3.1
Method: On the next day, hCD3ε-pcDNA3.1 and hCD3δ-pcDNA3.1 or a control pcDNA3.1-DEST was transfected to the Lenti-X293T cells using Lipofectamine 2000, and the cells were further cultured overnight at 37° C. under 5% CO₂ conditions. On the next day, the expression vector-transfected Lenti-X293T cells were treated with TrypLE Express (Thermo Fisher Scientific Inc.), washed with DMEM containing 10% FBS, and then adjusted to a concentration of 5×10⁶ cells/mL in PBS containing 5% FBS. The resulting cell suspension was used in flow cytometry analysis.
The hCD3δ-pcDNA3.1- and hCD3δ-pcDNA3.1-transfected Lenti-X293T cells or the pcDNA3.1-DEST-transfected Lenti-X293T cells were suspended by the addition of the hybridoma culture supernatant and left standing at 4° C. for 1 hour. The cells were washed once with PBS containing 5% FBS, then suspended by the addition of Anti-Rat IgG FITC conjugate (Sigma-Aldrich Corp.) diluted 500-fold with PBS containing 5% FBS, and left standing at 4° C. for 30 minutes. The cells were washed twice with PBS containing 5% FBS and then resuspended in PBS containing 5% FBS and 2 μg/ml 7-aminoactinomycin D (Molecular Probes, Inc.), followed by detection using a flow cytometer. The data was analyzed using Flowjo. After removal of 7-aminoactinomycin D-positive dead cells by gating, the FITC fluorescence intensity of live cells was plotted to a histogram.

[10] = target: T3, cynomolgus monkey CD3 on cynomolgus …; assay: flow cytometry, hybridoma supernatant on cynomolgus monkey T cell line HSC-F
Method: A cynomolgus monkey T cell line HSC-F (JCRB Cell Bank, No. JCRB1164) was adjusted to a concentration of 5×10⁶ cells/mL in an RPMI1640 medium containing FBS and added at a concentration of 100 μL/well to a 96-well plate. […] Then, the supernatant was removed, and the cells in the wells were washed once with PBS containing 5% FBS, then suspended by the addition of Anti-Rat IgG FITC conjugate diluted 500-fold with PBS containing 5% FBS, and left standing at 4° C. for 1 hour. The cells were washed three times with PBS containing 5% FBS and then resuspended in PBS containing 5% FBS and 2 μg/ml 7-aminoactinomycin D, followed by detection using a flow cytometer. The data was analyzed using Flowjo. After removal of 7-aminoactinomycin D-positive dead cells by gating, the FITC fluorescence intensity of live cells was plotted to a histogram.

B2: T2C-0005 (HT1-11 scFv/C3E-7035 bispecific molecule) (bispecific antibody)
chain: GQVQLVQSGAEVKKPGASVKVSCKASGYTFTTAGMQWVRQAPGQGLEWMGWINTHSGVPKYAEDFKGRVTISADTSTSTAYLQLSSLKSEDTAVYYCARSGFGSSYWYFDVWGQGTLVTVSSGGGGSGGGGSGGGGSDIQMTQSPSSLSASVGDRVTITCKASQDVSTAVAWYQQKPGKAPKLLIYSASYRYTGVPSRFSGSGSGTDFTLTISSLQPEDFAVYYCQQHYITPLTFGQGTKLEIKRTGGGGSEVQLVESGGGLVQPGGSLRLSCAASGVTFNYYGMSWIRQAPGKGLEWVASITNSGGRIYYPDSVKGRFTISRENTQKTLYLQMNSLRAEDTAVYYCTLDGRDGWVAYWGQGTLVTVSSGGGGSGGGGSGGGGSMAQAVLTQPSSVSGVPGQRVTISCKRNTGNIGSNYVNWYQQLPGTAPKLLIYRDDKRPSGVPDRFSGSKSGTSASLAITGFQAEDEADYYCQSYSSGFIFGGGTKLTVLGAAAGAGGDYKDDDDKGAAAHHHHHH
notes: Tandem scFv; also called anti-TROP2-CD3 bispecific molecule
Kd [4]: 126 nM | EC50 (read off the curve) [5]: ~10 nM | Kd [6]: 11.9 nM | binding result [7]: binds | EC50 (read off the curve) (human CD3 on human PBMC [8]): ~10 nM

B4: T2C-0001 (HT1-11 scFv/C3E-7034 bispecific molecule) (bispecific antibody)
chain: GQVQLVQSGAEVKKPGASVKVSCKASGYTFTTAGMQWVRQAPGQGLEWMGWINTHSGVPKYAEDFKGRVTISADTSTSTAYLQLSSLKSEDTAVYYCARSGFGSSYWYFDVWGQGTLVTVSSGGGGSGGGGSGGGGSDIQMTQSPSSLSASVGDRVTITCKASQDVSTAVAWYQQKPGKAPKLLIYSASYRYTGVPSRFSGSGSGTDFTLTISSLQPEDFAVYYCQQHYITPLTFGQGTKLEIKRTGGGGSEVQLVESGGGLVQPGGSLRLSCAASGVTFNYYGMSWIRQAPGKGLEWVASITNSGGRIYYPDSVKGRFTISRENTQKTLYLQMNSLRAEDTAVYYCTLDGRDGWVAYWGQGTLVTVSSGGGGSGGGGSGGGGSNFMLTQPHSVSESPGKTVTISCKRNTGNIGSNYVNWYQQHEGSSPTTIIYRDDKRPDGVSDRFSGSIDRSSKSASLTISNLKTEDEADYFCQSYSSGFIFGGGTKLTVLGAAAGAGGDYKDDDDKGAAAHHHHHH
notes: as for B2
Kd [4]: 13.9 nM | Kd [6]: 12.8 nM | binding result [7]: binds | EC50 (read off the curve) (human CD3 on human PBMC [8]): ~1 nM

B5: T2C-0006 (HT1-11 scFv/C3E-7036 bispecific molecule) (bispecific antibody)
chain: GQVQLVQSGAEVKKPGASVKVSCKASGYTFTTAGMQWVRQAPGQGLEWMGWINTHSGVPKYAEDFKGRVTISADTSTSTAYLQLSSLKSEDTAVYYCARSGFGSSYWYFDVWGQGTLVTVSSGGGGSGGGGSGGGGSDIQMTQSPSSLSASVGDRVTITCKASQDVSTAVAWYQQKPGKAPKLLIYSASYRYTGVPSRFSGSGSGTDFTLTISSLQPEDFAVYYCQQHYITPLTFGQGTKLEIKRTGGGGSEVQLVESGGGLVQPGGSLRLSCAASGVTFNYYGMSWIRQAPGKGLEWVASITNSGGRIYYPDSVKGRFTISRENTQKTLYLQMNSLRAEDTAVYYCTLDGRDGWVAYWGQGTLVTVSSGGGGSGGGGSGGGGSNFMLTQPSSVSGVPGQRVTISCTGNTGNIGSNYVNWYQQLPGTAPKLLIYRDDKRPSGVPDRFSGSKSGTSASLAITGFQAEDEADYYCQSYSSGFIFGGGTKLTVLGAAAGAGGDYKDDDDKGAAAHHHHHH
notes: as for B2
Kd [6]: 9.3 nM | binding result [7]: binds | binding result (human CD3 on human PBMC [8]): binds

Further lines, results first:

binding result (human CD3 on human PBMC [1]): binds | Kd [2]: 25 nM | binding result [3]: binds
B1: C3E-7036 (humanized anti-CD3 scFv) (scFv)
scFv: GEVQLVESGGGLVQPGGSLRLSCAASGVTFNYYGMSWIRQAPGKGLEWVASITNSGGRIYYPDSVKGRFTISRENTQKTLYLQMNSLRAEDTAVYYCTLDGRDGWVAYWGQGTLVTVSSGGGGSGGGGSGGGGSNFMLTQPSSVSGVPGQRVTISCTGNTGNIGSNYVNWYQQLPGTAPKLLIYRDDKRPSGVPDRFSGSKSGTSASLAITGFQAEDEADYYCQSYSSGFIFGGGTKLTVLGAAAGAGGDYKDDDDKGAAAHHHHHH

binding result [9]: binds | binding result [10]: binds
B3: rat anti-CD3 monoclonal antibody C3-147 (antibody, IgG2b, V domains shown)
VH: EVQLVESGGGLVQPGRALKLSCVVSGVTFNYYGMSWIRQAPGKGLEWVASITNSGGRIYYPDSVKGRFTISRENTQKTLYLQMNSLRSEDTATYYCTLDGRDGWVAYWGQGTLVTVSS
VL: QFVLTQPNSVSTNLGTTVELSCKRNTGNIGSNYVNWYQQHEGRSPTTIIYRDDKRPDGVSDRFSGSIDRSSKSALLTINNVQTEDEADYFCQSYSSGFIFGGGTKLTVL
notes: probably lambda; also called rat anti-human CD3 antibody
